Test results as given in patent US20220412989A1, “COMPOSITIONS AND METHODS FOR DETECTING CELLS UNDERGOING FERROPTOSIS USING AN ANTIBODY” (THE TRUSTEES OF COLUMBIA UNIVERSITY IN THE CITY OF NEW YORK, priority 2020, published 2022).

Experiments:
[1] = test system: TfR1 protein in HT-1080 cells; assay: Western blot of TfR1 during ferroptosis; format: cell-based, human; conditions: RSL3-induced and IKE-induced ferroptosis
Protocol: HT-1080 cells were seeded in DMEM (Corning 10-013-CM) and 10% Hi-FBS with 1% penicillin and streptomycin (PS) with 1% MEM Non-Essential Amino Acids Solution (100×) (Thermo Fisher Scientific 11140-076) 16 h prior to use. DMSO or 1 μM of RSL3 was added and incubated for 4 h. Following treatment, the medium was aspirated from each dish and cells were washed twice with PBS. Cells were lysed with 70 μl lysis buffer (RIPA buffer from ThermoFisher, cat. 89900, 1 mM EDTA, 1 mM PMSF, 1× Halt™ protease inhibitor cocktail from ThermoFisher, cat. 78430 and 1× Halt™ phosphatase inhibitor cocktail from ThermoFisher, cat. 78426). Unlysed cells and debris were pelleted for 15 min at 16,000×g at 4° C. Samples were separated using SDS-PAGE and transferred to a polyvinylidene difluoride membrane. Transfer was performed using the iBlot2 system (Invitrogen). […]

[2] = biological target: T1, transferrin receptor protein 1 (Homo sapiens, UniProt P02786); assay: siRNA knockdown of TfR1 followed by immunofluorescence; format: cell-based; conditions: HT-1080 cells, siTfR1 vs siNT
T1 construct: First, we incubated 3F3-FMA with a cell lysate overnight; endogenous in cells; host or cells: HT-1080 (ATCC CRL-7951)
T1 sequence (P02786 whole entry): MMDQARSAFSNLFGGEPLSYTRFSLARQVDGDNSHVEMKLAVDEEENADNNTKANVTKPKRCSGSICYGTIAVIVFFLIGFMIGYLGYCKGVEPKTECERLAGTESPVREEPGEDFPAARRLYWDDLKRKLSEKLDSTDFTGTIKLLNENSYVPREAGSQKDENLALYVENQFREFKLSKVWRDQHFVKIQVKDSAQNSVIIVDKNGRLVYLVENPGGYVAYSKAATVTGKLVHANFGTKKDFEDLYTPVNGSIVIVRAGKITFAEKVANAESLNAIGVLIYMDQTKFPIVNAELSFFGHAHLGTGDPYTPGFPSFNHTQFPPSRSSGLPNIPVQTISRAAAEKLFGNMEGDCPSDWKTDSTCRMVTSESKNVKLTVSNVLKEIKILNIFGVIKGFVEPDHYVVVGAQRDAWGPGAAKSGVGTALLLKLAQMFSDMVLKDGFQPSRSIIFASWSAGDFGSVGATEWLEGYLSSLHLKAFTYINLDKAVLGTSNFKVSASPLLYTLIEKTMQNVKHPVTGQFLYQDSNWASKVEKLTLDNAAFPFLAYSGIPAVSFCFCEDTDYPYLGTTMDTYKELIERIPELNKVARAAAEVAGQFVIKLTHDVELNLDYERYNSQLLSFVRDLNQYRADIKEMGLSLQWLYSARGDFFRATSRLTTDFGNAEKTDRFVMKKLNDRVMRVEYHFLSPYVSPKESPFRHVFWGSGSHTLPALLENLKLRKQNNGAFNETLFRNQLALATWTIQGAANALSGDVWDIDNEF
Protocol: 10 μM of siRNAs were combined with 250 μl of Opti-MEM serum-free media (Life Technologies 31985-070) in one tube. 6 μl of Lipofectamine RNAiMAX (Thermo Fisher Scientific 13778150) was combined with 250 μl of Opti-Mem media in another tube. They were equilibrated at r.t. for 5 min. Then two tubes were combined, transferred into 6-well plate and incubated at 37° C. for 20 min. 0.25 million HT-1080 cells were then added to 6-well plate and incubated for 48 h. Cells were reseeded in regular media for additional 24 h. Regular IF procedure was then conducted.

staining in siTfR1-transfected cells [2]: wasn't any detectable staining
B1: 3F3-FMA: murine monoclonal IgG1 raised against ferroptotic membrane fractions; antigen is human transferrin receptor protein 1 (TfR1) (antibody, V domains shown)
VH: EVLLQQSGTELVRPGALVKLSCKASGFNIQDLYIHWVKQRPEQGLEWIGWIDPETDNTIYDPKFQGKASITADTSSNTAYLQLSSLTSEDTAMYYCSTGLLQWYFDVWGAGTAVTVSS
VL: DIVMTQSPSSLAMSIGQKVTMRCKSSQSLLNSYNQKNCLAWYQQKPGQSPKLLLYFVSTRESGVPDRFIGSGSGTDFTLTISSVQAEDLADYFCQQHYSTPLTFGAGTKLELK
intensity of the bands in western blotting [1]: increased intensity of the bands
